Assay results from publication PMC4507011.
Each block holds one molecule with its values, some of them ahead of it.

Tests used:
[1] = target: dehydrogenase domain (DH) of MtCDH variant M309A (Myriococcum thermophilum)
[2] = target: dehydrogenase domain (DH) of MtCDH variant M309R (Myriococcum thermophilum)
[3] = target: dehydrogenase domain (DH) of MtCDH variant N292S (Myriococcum thermophilum)
[4] = target: dehydrogenase domain (DH) of MtCDH variant N700S (Myriococcum thermophilum)
[5] = target: dehydrogenase domain (DH) of MtCDH variant R698S (Myriococcum thermophilum)
[6] = target: dehydrogenase domain (DH) of MtCDH variant S298Q (Myriococcum thermophilum)
[7] = target: dehydrogenase domain (DH) of MtCDH variant W295A (Myriococcum thermophilum)
[8] = target: dehydrogenase domain (DH) of MtCDH variant Y549F (Myriococcum thermophilum)
[9] = target: dehydrogenase domain (DH) of MtCDH variant Y619Q (Myriococcum thermophilum)
[10] = target: dehydrogenase domain (DH) of Myriococcum thermophilum cellobiose dehydrogenase, wild type (Myriococcum thermophilum)
[11] = target: T1, Neurospora crassa lytic polysaccharide monooxygenase NcLPMO9F (Neurospora crassa) (UniProt Q1K4Q1)
T1 sequence (chain, non-glycosylated; N-terminal histidine not methylated): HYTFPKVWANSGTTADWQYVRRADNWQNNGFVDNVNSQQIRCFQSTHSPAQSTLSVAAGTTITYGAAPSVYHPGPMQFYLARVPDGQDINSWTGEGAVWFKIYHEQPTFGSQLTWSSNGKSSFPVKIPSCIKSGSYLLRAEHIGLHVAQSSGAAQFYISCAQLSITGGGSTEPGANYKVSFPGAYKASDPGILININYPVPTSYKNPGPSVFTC

[12] = target: T1, Neurospora crassa lytic polysaccharide monooxygenase NcLPMO9F (Neurospora crassa); remark: listed apart in the source

haem b reduction rate kobs (interdomain electron transfer) of 5 μM full-length MtCDH M309A with 25 mM cellobiose, stopped flow at 563 nm, 30 °C, pH 5.0 [1]: 0.056 s⁻¹ | haem b reduction rate kobs (interdomain electron transfer) of 5 μM full-length MtCDH M309R with 25 mM cellobiose, stopped flow at 563 nm, 30 °C, pH 5.0 [2]: 0.088 s⁻¹ | haem b reduction rate kobs (interdomain electron transfer) of 5 μM full-length MtCDH N292S with 25 mM cellobiose, stopped flow at 563 nm, 30 °C, pH 5.0 [3]: 0.95 s⁻¹ | haem b reduction rate kobs (interdomain electron transfer) of 5 μM full-length MtCDH N700S with 25 mM cellobiose, stopped flow at 563 nm, 30 °C, pH 5.0 [4]: 1.37 s⁻¹ | haem b reduction rate kobs (interdomain electron transfer) of 5 μM full-length MtCDH R698S with 25 mM cellobiose, stopped flow at 563 nm, 30 °C, pH 5.0 [5]: 0.011 s⁻¹ | haem b reduction rate kobs (interdomain electron transfer) of 5 μM full-length MtCDH S298Q with 25 mM cellobiose, stopped flow at 563 nm, 30 °C, pH 5.0 [6]: 0.09 s⁻¹ | haem b reduction rate kobs (interdomain electron transfer) of 5 μM full-length MtCDH W295A with 25 mM cellobiose, stopped flow at 563 nm, 30 °C, pH 5.0 [7]: 0.86 s⁻¹ | haem b reduction rate kobs (interdomain electron transfer) of 5 μM full-length MtCDH Y549F with 25 mM cellobiose, stopped flow at 563 nm, 30 °C, pH 5.0 [8]: 0.76 s⁻¹ | haem b reduction rate kobs (interdomain electron transfer) of 5 μM full-length MtCDH Y619Q with 25 mM cellobiose, stopped flow at 563 nm, 30 °C, pH 5.0 [9]: 0.38 s⁻¹ | haem b reduction rate kobs (flavin-to-haem interdomain electron transfer) of 5 μM full-length MtCDH wild type with 25 mM cellobiose, stopped flow at 563 nm, 30 °C, 50 mM sodium citrate pH 5.0 [10]: 0.76 s⁻¹
Molecule: cytochrome domain (CYT) of Myriococcum thermophilum cellobiose dehydrogenase (domain or fragment)

haem b re-oxidation rate (kobs) of reduced NcCYT (4 μM) mixed with NcLPMO9F (20 μM), stopped flow at 563 nm, 30 °C, 50 mM sodium citrate pH 5.0 (re-oxidation by oxygen alone 0.0007 s^−1) [11]: 67.2 s⁻¹
B1: cytochrome domain of Neurospora crassa cellobiose dehydrogenase IIA (separate fragment) (domain or fragment)
chain: QTAPKTFTHPDTGIVFNTWSASDSQTKGGFTVGMALPSNALTTDATEFIGYLECSSAKNGANSGWCGVSLRGAMTNNLLITAWPSDGEVYTNLMFATGYAMPKNYAGDAKITQIASSVNATHFTLVFRCQNCLSWDQDGVTGGISTSNKGAQLGWVQAFPSPGNPTCPTQITLSQHDNGMGQWGAAFDSNIANPSYTAWAAKATKTVTGTCSGPVTTSIAATPVPTGVSFDYIVVGGGAGGIPVADKLSESGKSVLLIEKGFASTGEHGGTLKPEWLNNTSLTRFDVPGLCNQIWKDSDGIACSDTDQMAGCVLGGGTAINAGLWYKPYTKDWDYLFPSGWKGSDIAGATSRALSRIPGTTTPSQDGKRYLQQGFEVLANGLKASGWKEVDSLKDSEQKNRTFSHTSYMYINGERGGPLATYLVSAKKRSNFKLWLNTAVKRVIREGGHITGVEVEAFRNGGYSGIIPVTNTTGRVVLSAGTFGSAKILLRSGIGPKDQLEVVKASADGPTMVSNSSWIDLPVGHNLVDHTNTDTVIQHNNVTFYDFYKAWDNPNTTDMNLYLNGRSGIFAQAAPNIGPLFWEEITGADGIVRQLHWTARVEGSFETPDGYAMTMSQYLGRGATSRGRMTLSPTLNTVVSDLPYLKDPNDKAAVVQGIVNLQKALANVKGLTWAYPSANQTAADFVDKQPVTYQSRRSNHWMGTNKMGTDDGRSGGTAVVDTNTRVYGTDNLYVVDASIFPGVPTTNPTAYIVVAAEHAAAKILAQPANEAVPKWGWCGGPTYTGSQTCQAPYKCEKQNDWYWQCV

re-oxidation rate of the FAD cofactor of NcDH (10 μM) in the presence of 50 μM NcLPMO9F, stopped flow at 450 nm (0.0444 s^–1 without LPMO): unchanged, no electron transfer [12]: 0.0442 s⁻¹
B2: dehydrogenase domain of Neurospora crassa cellobiose dehydrogenase IIA (separate fragment) (domain or fragment)
chain: B1 chain
